This note sets out measurements from publication PMC6427009 (Scientific Reports, 2019).

In this experiment the target is Hemagglutinin of Influenza A/California/07/2009 (H1N1) (Influenza A/California/07/2009 (H1N1), UniProt C3W5X2, fully glycosylated (7 glycosylation sites)). The experiment is described as follows: HDX-MS. As to conditions: both partners purified.

B1: llama single-domain antibody SD38 (VHH)
VHH: EVQLVESGGGLVQPGGSLRLSCAVSISIFDIYAMDWYRQAPGKQRDLVATSFRDGSTNYADSVKGRFTISRDNAKNTLYLQMNSLKPEDTAVYLCHVSLYRDPLGVAGGMGVYWGKGALVTVSS
notes: also called Llama single domain SD38
In the case of B1, the binding result is recorded as “binds”.
